In publication PMC4136804:

Key:
GST-tagged SUMO-2(x3) = experiment: pull-down; as the plate assay, equal cpm of radiolabeled protein per well, eluted protein counted by liquid scintillation; mean of three experiments, compared with GST alone
GST-tagged SUMO-2 = GST-tagged SUMO-2 (UniProt P61956); experiment: as above

Chain of GST-tagged SUMO-2(x3) (main, as listed by the source): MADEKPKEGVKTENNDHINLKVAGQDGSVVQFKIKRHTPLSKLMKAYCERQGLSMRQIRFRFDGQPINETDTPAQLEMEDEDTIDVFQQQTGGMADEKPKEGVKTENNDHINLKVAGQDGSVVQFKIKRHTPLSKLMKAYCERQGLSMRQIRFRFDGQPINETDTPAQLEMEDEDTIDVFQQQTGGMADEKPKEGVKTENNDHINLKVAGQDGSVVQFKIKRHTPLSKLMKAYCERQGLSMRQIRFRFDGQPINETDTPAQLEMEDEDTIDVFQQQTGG
Chain of pyruvate kinase fused with the first two MYM-type zinc fingers of ZNF261 (domain or fragment) (Q14202 327-738): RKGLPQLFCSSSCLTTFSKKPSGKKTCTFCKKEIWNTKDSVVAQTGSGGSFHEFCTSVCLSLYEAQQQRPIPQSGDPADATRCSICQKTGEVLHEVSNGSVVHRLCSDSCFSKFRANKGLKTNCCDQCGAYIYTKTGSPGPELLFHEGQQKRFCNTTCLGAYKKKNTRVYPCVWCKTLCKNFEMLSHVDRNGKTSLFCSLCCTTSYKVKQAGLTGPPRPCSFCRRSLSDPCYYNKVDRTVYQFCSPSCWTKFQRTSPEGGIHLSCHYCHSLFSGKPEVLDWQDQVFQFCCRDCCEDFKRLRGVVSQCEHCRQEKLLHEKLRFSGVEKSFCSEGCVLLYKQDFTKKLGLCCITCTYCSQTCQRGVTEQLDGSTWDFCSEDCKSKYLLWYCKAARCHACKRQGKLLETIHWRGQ
Chain of pyruvate kinase fused with a single MYM-type zinc finger of ZNF261 (domain or fragment) (Q14202 327-738): as above

Substance	fold increase in binding compared to GST alone (GST-tagged SUMO-2(x3))	fold increase in binding compared to GST alone (GST-tagged SUMO-2)	fold increase in binding over the single-finger fusion (GST-tagged SUMO-2(x3))	fold increase in binding over the single-finger fusion (GST-tagged SUMO-2)
pyruvate kinase fused with a single MYM-type zinc finger of ZNF261 (domain or fragment)	3 fold	1.5 fold	–	–
pyruvate kinase fused with the first two MYM-type zinc fingers of ZNF261 (domain or fragment)	–	–	> 2 fold	> 2 fold
